Like-named read-outs stand apart in the source and are kept apart here.
How the values were obtained:
[1] = molecular target: T1, Human FGFR-3(IIIb) (human, UniProt P22607-2 23-377, limits assumed); assay: BiaCore 3000 SPR, room temperature
T1 construct: The construct in the BiaCore experiment is not described; it is probably recombinant ECD-Fc; also called b-splice form of human FGFR-3
T1 sequence (looked up): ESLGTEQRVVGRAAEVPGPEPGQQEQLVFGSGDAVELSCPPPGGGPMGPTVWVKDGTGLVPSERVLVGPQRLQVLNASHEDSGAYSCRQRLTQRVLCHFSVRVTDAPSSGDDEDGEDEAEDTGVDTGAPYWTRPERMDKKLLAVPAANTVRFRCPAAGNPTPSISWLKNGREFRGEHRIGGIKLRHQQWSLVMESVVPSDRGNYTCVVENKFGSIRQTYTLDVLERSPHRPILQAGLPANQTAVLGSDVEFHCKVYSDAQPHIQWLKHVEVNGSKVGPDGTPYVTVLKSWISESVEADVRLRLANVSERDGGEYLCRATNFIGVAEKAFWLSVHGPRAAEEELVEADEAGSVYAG

[2] = molecular target: T2, FGFR-3(IIIb) truncate D1 (25-148)-Fc (human, UniProt P22607 25-148); assay: Mesoscale binding assay and BIAcore
T2 construct: range 25-148; Homodimeric Fc fusion; not shown: human Fc tag of the pGS-Fc vector
T2 sequence: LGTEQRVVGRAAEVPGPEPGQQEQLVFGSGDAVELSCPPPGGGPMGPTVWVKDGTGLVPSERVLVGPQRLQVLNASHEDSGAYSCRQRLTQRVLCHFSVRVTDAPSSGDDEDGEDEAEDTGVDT

[3] = molecular target: T3, FGFR-3(IIIb) truncate D3 (250-372)-Fc (human, UniProt P22607-2 250-372); assay: Mesoscale binding assay and BIAcore
T3 construct: range 250-372; Homodimeric Fc fusion; not shown: human Fc tag of the pGS-Fc vector
T3 sequence (looked up): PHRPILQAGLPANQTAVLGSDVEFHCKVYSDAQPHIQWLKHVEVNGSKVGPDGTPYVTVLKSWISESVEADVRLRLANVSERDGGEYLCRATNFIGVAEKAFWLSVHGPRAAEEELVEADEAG

[4] = molecular target: T1, Human FGFR-3(IIIb); assay: BiaCore 3000 SPR, room temperature; remark: listed apart in the source
[5] = molecular target: T4, FGFR-3(IIIb) or (IIIc) ECD (extracellular domain) Fc tagged soluble recombinant protein (human, UniProt P22607 23-375); assay: ELISA blocking assay: FGFR-3 ECD-Fc (1 µg/ml) with antibody dilutions on FGF-1 coated plates; lower end of the range
T4 construct: extracellular domain; also called recombinant human FGFR-Fc; not shown: Fc tag
T4 sequence (looked up): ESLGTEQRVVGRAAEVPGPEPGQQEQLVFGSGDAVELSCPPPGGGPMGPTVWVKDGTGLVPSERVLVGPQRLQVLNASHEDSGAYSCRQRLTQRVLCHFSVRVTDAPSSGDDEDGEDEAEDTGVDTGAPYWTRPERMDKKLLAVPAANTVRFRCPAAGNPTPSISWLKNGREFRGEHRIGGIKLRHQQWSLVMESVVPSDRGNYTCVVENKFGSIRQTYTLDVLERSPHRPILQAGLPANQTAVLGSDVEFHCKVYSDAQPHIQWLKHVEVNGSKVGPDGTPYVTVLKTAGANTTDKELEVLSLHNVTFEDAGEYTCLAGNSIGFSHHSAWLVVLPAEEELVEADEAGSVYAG
Text: (§1) Wash plates 3 times with 0.2% Tween20/PBS. […] Blocking activities lead to decreased signals.

[6] = molecular target: T4, FGFR-3(IIIb) or (IIIc) ECD …; assay: ELISA blocking assay: FGFR-3 ECD-Fc (1 µg/ml) with antibody dilutions on FGF-1 coated plates; upper end of the range
Text: as §1

B1: Antibody 1 (antibody, human IgG1, lambda)
heavy: not shown
light: QSVLTQPPSLSVAPGKTATFTCGGNNIGDKSVHWYRQKPGQAPVLVMYLDTERPSGIPERMSGSNFGNTATLTITRVEAEDEADYYCQVWDSGSDHVVFGGGTKLTVLGQPKAAPSVTLFPPSSEELQANKATLVCLISDFYPGAVTVAWKADSSPVKAGVETTTPSKQSNNKYAASSYLSLTPEQWKSHRSYSCQVTHEGSTVEKTVAPAECS
notes: Human IgG1 from a naive human Fab phage library; It was ruthenium-labelled in the Mesoscale assay and Alexa Fluor-labelled in the internalisation assay; also called FGFR-3 antibody antagonist
- Kd [1]: 1 nM
- binding result [2]: no binding (tested: 250-0.001 nM dilution series)
- binding result [3]: no binding (tested: 250-0.001 nM dilution series)
- Kd [4]: 0.72 nM
- IC50 [5]: ≥ 1 nM
- IC50 [6]: ≤ 10 nM

From patent publication US20100098696A1 (Eli Lilly, published 2010)
